According to the DeepSol protein solubility set:

Test: soluble on expression in E. coli; label from the status in PepcDB or PDB records

Soluble on expression in E. coli, soluble:
MAAPEAEVLSSAAVPDLEWYEKSEETHASQIELLETSSTQEPLNASEAFCPRDCMVPVVFPGPVSQEGCCQFTCELLKHIMYQRQQLPLPYEQLKHFYRKPSPQAEEMLKKKPRATTEVSSRKCQQALAELESVLSHLEDFFARTLVPRVLILLGGNALSPKEFYELDLSLLAPYSVDQSLSTAACLRRLFRAIFMADAFSELQAPPLMGTVVMAQGHRNCGEDWFRPKLNYRVPSRGHKLTVTLSCGRPSIRTTAWEDYIWFQAPVTFKGFRE
MAAQKKIPLRKCVVTGEMKPKREMVRIVRSKEGEVSIDPTGKKAGRGAYITLDPECILQAKKKNILARHLKADIDDAIYDELLALAEKEKQAGHEA
MAASWRLGCDPRLLRYLVGFPGRRSVGLVKGALGWSVSRGANWRWFHSTQWLRGDPIKILMPSLSPTMEEGNIVKWLKKEGEAVSAGDALCEIETDKAVVTLDASDDGILAKIVVEEGSKNIRLGSLIGLIVEEGEDWKHVEIPKDVGPPPPVSKPSEPRPSPEPQISIPVKKEHIPGTLRFRLSPAARNILEKHSLDASQGTATGPRGIFTKEDALKLVQLKQTGKITESRPTPAPTATPTAPSPLQATAGPSYPRPVIPPVSTPGQPNAVGTFTEIPASNIRRVIAKRLTESKSTVPHAYATADCDLGAVLKVRQDLVKDDIKVSVNDFIIKAAAVTLKQMPDVNVSWDGEGPKQLPFIDISVAVATDKGLLTPIIKDAAAKGIQEIADSVKALSKKARDGKLLPEEYQGGSFSISNLGMFGIDEFTAVINPPQACILAVGRFRPVLKLTEDEEGNAKLQQRQLITVTMSSDSRVVDDELATRFLKSFKANLENPIRLA
MAATARRGWGAAAVAAGLRRRFCHKLKNPYTIKKQPLHQFVQRPLFPLPAAFYHPVRYMFIQTQDTPNPNSLKFIPGKPVLETRTMDFPTPAAAFRSPLARQLFRIEGVKSVFFGPDFITVTKENEELDWNLLKPDIYATIMDFFASGLPLVTEETPSGEAGSEEDDEVVAMIKELLDTRIRPTVQEDGGDVIYKGFEDGIVQLKLQGSCTSCPSSIITLKNGIQNMLQFYIPEVEGVEQVMDDESDEKEANSP
MACLTDLVNLNLSDTTEKIIAEYIWIGGSGMDLRSKARTLPGPVTDPSKLPKWNYDGSSTGQAPGEDSEVILYPQAIFKDPFRRGNNILVMCDCYTPAGEPIPTNKRYSAAKIFSSPEVAAEEPWYGIEQEYTLLQKDTNWPLGWPIGGFPGPQGPYYCGIGAEKSFGRDIVDAHYKACLYAGINISGINGEVMPGQWEFQVGPSVGISSGDQVWVARYILERITEIAGVVVTFDPKPIPGDWNGAGAHTNYSTESMRKEGGYEVIKAAIEKLKLRHKEHIAAYGEGNERRLTGRHETADINTFSWGVANRGASVRVGRETEQNGKGYFEDRRPASNMDPYVVTSMIAETTIVWKP
MADDFAYLNARVRVRRGTLLKESFFQEALDLSFADFLRLLSETVYGGELAGQGLPDVDRAVLRTQAKLVGDLPRLVTGEAREAVRLLLLRNDLHNLQALLRAKATGRPFEEVLLLPGTLREEVWRQAYEAQDPAGMAQVLAVPGHPLARALRAVLRETQDLARVEALLAKRFFEDVAKAAKGLDQPALRDYLALEVDAENLRTAFKLQGSGLAPDAFFLKGGRFVDRVRFARLMEGDYAVLDELSGTPFSGLSGVRDLKALERGLRCVLLKEAKKGVQDPLGVGLVLAYVKEREWEAVRLRLLARRAYFGLPRAQVEEEVVCP
MADEEDPCGGGKKNPRKRCQPDVDPEEDSEPDLDGPQPPFRGRSSTVTDAVRQTAMEFRKRARSDEFRPAQQPEQSVVAVKPPTTSAPVTPFPANLPVSEQLEDLSLLPGVRRVRPLPRSRYPVANDPFDKFSAYSGPGSSQQAVPRTISKISEESGSGSGSGSGNDSSGSSGPTRMSGQVPSTSGPPPPRPPPAGHQNPFLGNQPSTSNTSEPSTSTQGVSPSRTSKISKKKAHQAGLHSKGSSEDSTDSGESKPSSKQPPKKSPKSNKNDPNAPGPSRRRDDDDDGVQGGSSEGSSESL
MADETIAIVDADATAETRSLLSYLDGVRGEGILFGHQHTTSFGLTTGPTDGTTSDVKNVTGDFPAVFGWDTLIIEGNERPGLAENTRDENIALFADYIRKADAIGGVNTVSAHVENFVTGGSFYDTSGDTLRAVLPGGSHHAELVAYLDDIAELADASRRDDGTLIPIVFRPWHENAGSWFWWGAAYGSPGEYQELYRFTVEYLRDVKGVSNFLYAWGPGGGFGGNRDVYLRTYPGDAFVDVLGLDTYDSTGSDAFLAGLVADLRMIAEIADEKGKVSAFTEFGVSGGVGTNGSSPAQWFTKVLAAIKADPVASRNAYMETWRNADAGQHFVPVPGDALLEDFQAYAADPFTLFASEVTGAFDRTVAAAPAQPVVHIASPADGARVASAPTTVRVRVGGTDVQSVTVEVAQGGTVVDTLDLAYDGALWWTAPWSPTSAQLDNSTYTVTATATTAAGTLDVTNEVAAALEHHHHHH
MADFLTRFIREELSWRGYEKAIVAVSGGVDSATTLALAVRALGAERVHALFLPHRESSPTSREHAYLVAETFGVALEEVDITPMVEGYAALTPDLTPHRKGNVMARARMIVLFDKSEAYRALPLGTGNKTERLFGYFTWHGDDTPPVNPLGDLYKTQVWRLAEHLGVPEEVVRKPPTADLIPGQTDEADLGLRYLRADVILEHYLKGYSDQYILGLGFTEEELRRVKERVNRTHWKRALPTVALLSSTAIGEFYLRPLDYRP
MADIYPLGKTHTEELNEIIVESAKEIAEPDTTMIQKLIDEHNPEPLLKGVRYYMCENDIEKKRRTYYDAAGQQLVDDTKTNNRTSHAWHKLFVDQKTQYLVGEPVTFTSDNKTLLEYVNELADDDFDDILNETVKNMSNKGIEYWHPFVDEEGEFDYVIFPAEEMIVVYKDNTRRDILFALRYYSYKGIMGEETQKAELYTDTHVYYYEKIDGVYQMDYSYGENNPRPHMTKGGQAIGWGRVPIIPFKNNEEMVSDLKFYKDLIDNYDSITSSTMDSFSDFQQIVYVLKNYDGENPKEFTANLRYHSVIKVSGDGGVDTLRAEIPVDSAAKELERIQDELYKSAQAVDNSPETIGGGATGPALEKLYALLDLKANMAERKIRAGLRLFFWFFAEYLRNTGKGDFNPDKELTMTFTRTRIQNDSEIVQSLVQGVTGGIMSKETAVARNPFVQDPEEELARIEEEMNQYAEMQGNLLDDEGGDDDLEEDDPNAGAAESGGAGQVS

Soluble on expression in E. coli, not soluble:
MAATITDDIVATVLESIEEKSYEDEKEKAGMIKDEANQFFKDQVYDVAADLYSVAIEIHPTAVLYGNRAQAYLKKELYGSALEDADNAIAIDPSYVKGFYRRATANMALGRFKKALTDYQAVVKVCPNDKDARAKFDECSKIVRRQKFEAAISTDHDKKTVAETLDINAMAIEDSYDGPRLEDKITKEFVLQLIKTFKNQQKLHKKYAFKMLLEFYNYVKSLPTMVEITVPTGKKFTICGDVHGQFYDLCNIFEINGYPSETNPYLFNGDFVDRGSFSVETIFTMIGFKLLYPNHFFMSRGNHESDVMNKMYGFEGEVKAKYTQQMCDMFTETFCWLPLCHLINEKIFVCHGGLFKEDGVTLEDIRKTDRNRQPPDEGIMCDLLWEKNWKNLKILYPDGKINKNSNCQPKTCKNASDPQPINGRSPSKRGVGCQFGPDVTSKWCETNGIEYVVRSHEVKPEGYEMHHNGQCFTVFSAPNYCDQMNNKGAFITITGDNLTPRFTPFDAVPHPKLPPMAYANSLFGFN
MADETPKVKTEPAAEVKSPLDEVKEIRKEAELTQTGSDEKKTTDPEFITVQDPNGDEPIELPTVDGVVLMTTLQASFPGATGLKYKNPKTGANRAVQVDPSGLKLIAPADGWENKTFFVIVAPQSERVRALSSADATSAKRRKVGSSDDSDSDDGRDGRSGRKRAVERDSQPVDLIVLGVDFKTTDECFQKYFEDIGTVVFCEIKRKSDGNSKGFGFVRMSSVGEQNKVLAIPQHMIDGRRCDVKVPDGRDKQGRPSISRIFVGRLTDKVDEHQLRKVFGDEAKSYIETAVVTDVFIPKPFRGFAFVTLSSAEAAERIVSKGSLTVNGLSVGLSIAQPREENNQSVGPDYGLPAGYRNRRERDRPDRRPIQNEAPLPMPFVRPPQDYSYRQQNSPLERRYWAPGDSRGPGW
